Data on 1 substance can be found in US20120094280.

For data set [1], the target named is M.SssI DNA cytosine-C5 methyltransferase (Spiroplasma sp.?) (UniProt P15840). The following applies: formaldehyde; GCGC site resistant to R.Hin6I.
Data set [2] has as its target T1, M.HpaII DNA cytosine-C5 methyltransferase (UniProt P15446).
T1 sequence: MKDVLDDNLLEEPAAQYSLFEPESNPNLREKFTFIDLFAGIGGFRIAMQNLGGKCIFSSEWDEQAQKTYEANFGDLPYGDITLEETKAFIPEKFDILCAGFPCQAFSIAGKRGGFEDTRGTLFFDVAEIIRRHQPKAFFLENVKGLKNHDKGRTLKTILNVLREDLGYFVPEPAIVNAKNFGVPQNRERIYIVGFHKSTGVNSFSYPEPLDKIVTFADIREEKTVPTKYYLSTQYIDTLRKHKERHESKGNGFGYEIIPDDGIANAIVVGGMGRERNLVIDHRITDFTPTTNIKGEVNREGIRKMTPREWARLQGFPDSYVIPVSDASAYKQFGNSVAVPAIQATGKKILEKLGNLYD
The following applies: formaldehyde; CCGG sites resistant to R.HpaII.

Chain of M.SssI DNA cytosine-C5 methyltransferase (Spiroplasma sp.?) (P15840 whole entry): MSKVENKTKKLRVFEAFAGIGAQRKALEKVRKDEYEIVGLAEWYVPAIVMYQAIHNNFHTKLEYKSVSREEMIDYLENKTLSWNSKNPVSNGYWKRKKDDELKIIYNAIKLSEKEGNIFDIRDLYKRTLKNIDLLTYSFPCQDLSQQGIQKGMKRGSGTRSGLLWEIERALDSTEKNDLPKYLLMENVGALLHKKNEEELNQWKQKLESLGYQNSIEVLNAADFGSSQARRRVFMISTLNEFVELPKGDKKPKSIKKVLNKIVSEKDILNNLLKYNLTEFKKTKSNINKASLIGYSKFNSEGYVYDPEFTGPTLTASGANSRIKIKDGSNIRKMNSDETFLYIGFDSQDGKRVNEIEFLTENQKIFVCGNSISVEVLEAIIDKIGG

On to pUC-618 PCR fragment (618 bp), for which the activity in data set [1] and in data set [2] was 70% throughout.
